Measurements as given in US20230391872A1 (ANAPTYSBIO, published 2023).
“And” between values parts separate entries of the source, which are not always exact repeats. Equal values may be shown once.

Legend:
[1] = molecular target: T1, human BTLA on cells (stably transfected 293c18 cells; human peripheral blood T and B cells) (human, UniProt Q7Z6A9 31-289); assay: flow cytometry (MFI DyL650) on gated CD8+ T cells of human PBMC, DyLight 650-labelled antibody, three-parameter fit [middle panel (Naive CD8+ T cells]
T1 construct: whole, on cells; the cells are named under assay; also called cell surface BTLA; full-length human BTLA
Method: Human peripheral blood mononuclear cells (PBMCs) were isolated by Histopaque (Sigma-Aldrich) density-gradient centrifugation of normal donor blood obtained from the San Diego Blood Bank (San Diego, CA). PBMCs were washed and incubated at 2×10⁷ cells/ml in FACS buffer (PBS, 1% BSA, 0.02% sodium azide) with Human BD Fc Block (2.5 μg/1×10⁶ cells, BD Biosciences) and LIVE/DEAD® Fixable Yellow Dead Cell Stain (30 μl, ThermoFisher Scientific) for 10 minutes on ice. Cells were washed once in FACS buffer, resuspended in FACS buffer at 1×10⁷ cells/ml and the following phenotyping antibodies added: Alexa Fluor 488-anti-human CD3E clone SK7, Brilliant Violet 421-anti-human CD4 clone OKT4, Brilliant Violet 785-anti-human CD8 clone SK1, and Brilliant Violet 570-anti-human CD20 clone 2H7 (50 μl each; all from BioLegend, Inc.). […] Samples were washed twice in FACS buffer, resuspended in 150 μl/well FACS buffer, and analyzed for fluorescence on a NovoCyte Flow Cytometer (ACEA Biosciences, Inc.). Data were analyzed using NovoExpress Software (ACEA Biosciences, Inc.). Median fluorescence intensities of anti-BTLA or isotype staining on gated CD4⁺ T cells (FIG. 4), CD8⁺ T cells (FIG. 4), or CD20⁺ B cells (FIG. 4) were graphed and curves fit with log(agonist) vs. response (three parameters) least squares fit for EC₅₀ calculation in GraphPad Prism (GraphPad Software, Inc.).

[2] = molecular target: T1, human BTLA on cells (stably transfected …); assay: flow cytometry (MFI) on 293c18 cells stably expressing human BTLA, goat anti-human kappa-PE detection, four-parameter fit [left panel (Hu BTLA 293c18 cells), EC50 box]
Method: 293c18 cell clone 1E4 stably expressing human BTLA construct or clone 1G5 stably expressing cynomolgus monkey BTLA were harvested with Accutase solution (Millipore Sigma/Sigma-Aldrich) and washed once with Phosphate-Buffered Saline, 1% BSA. 293c18 cynomolgus monkey BTLA cells were loaded with the lipophilic carbocyanine dye, DiD (2 μM, 1,1′-dioctadecyl-3,3,3′,3′-tetramenthylindodicarbocyanine; ThermoFisher Scientific) by rocking gently for 10 minutes at room temperature. DiD-stained cells were washed in PBS, 1% BSA and equal amounts of human BTLA 293c18 cells and cynomolgus monkey BTLA 293c18-DiD-stained cells were mixed. Cells (2×10⁵ total cells/sample) were incubated with the indicated concentrations of purified 6G3 IgG4 (two production lots, APE10840.03 and APE10840.04 (H Chain SEQ ID NO: 144, L Chain SEQ ID NO: 174)) or human IgG4 isotype control antibody specific for hen egg lysozyme with gentle shaking for 10 minutes at 4° C. in FACS buffer (PBS, 1% BSA, 0.02% sodium azide). […] Cells were washed and resuspended in FACS buffer and analyzed for fluorescence on a BD FACSArray (BD Biosciences). DiD stained cells expressing cynomolgus monkey BTLA (FIG. 3) were analyzed for median fluorescence intensity (MFI) separately from cells expressing human BTLA (FIG. 3). […]

B1: 6G3 IgG4 anti-BTLA antibody (APE10840 / APE12839 / APE13308) (antibody, V domains shown)
VH: QVQLVQSGAEVKKPGSSVKVSCKASGYVFSTSWMNWVRQAPGQGLEWMGRIYPGDADTNYVGKFKGRVTITADKSTTTAYMELSSLRSEDTAVYFCAKSGTFNFGNYRWYFDVWGKGTTVTVSS
VL: AIQLTQSPSSLSASVGDRVTITCRVSENIYSHLAWYQQKPGKAPKLLIYAATNLALGVPSRFSGSGSGTDYTLTISSLQPEDFATYYCQLFWGPPLTFGGGTKVEIKR
notes: Humanized antibody from a mouse hybridoma, tested as human IgG4 (detected with anti-human kappa); Some assays used labelled lots (DyLight 650, AF647, biotin, DyL488); also called 6G3 antibody; APE10840.03
With B1 the EC50 [1] was 3.23 nM and the EC50 [2] was 1.69 nM and 1.79 nM.
